Patent publication US9327008B2, “Cell-permeant peptide-based inhibitor of kinases” (Purdue Research Foundation, priority 2008, dated 2016)

Key:
Type in all cases: biochemical
[1] = target: T1, LIMK1 (Homo sapiens, UniProt P53667); experiment: Millipore radiometric kinase activity assay, LIMK1 (h)
T1 construct: purchased Millipore (radiometric assay service)
Experimental: (§1) A commercial radiometric assay service (Millipore, Billerica, Mass.) was used to test the specificity and potency of peptides containing a coupled transduction domain and therapeutic domain, hereinafter “complete peptides”). In these assays, if the kinase is not inhibited by an inhibitor peptide, a positively charged substrate is phosphorylated with a radiolabeled phosphate group from an ATP.
(§2) In a final reaction volume of 25 μL, LIMK1 (h) (5-10 mU) is incubated with 8 mM MOPS pH 7.0, 0.2 mM EDTA, 0.6 mg/mL cofilin, 10 mM MgAcetate and [γ-^33P-ATP] (specific activity approx. 500 cpm/pmol, concentration as required). The reaction is initiated by the addition of the MgATP mix. After incubation for 40 minutes at room temperature, the reaction is stopped by the addition of 5 μL of a 3% phosphoric acid solution. 10 μL of the reaction is then spotted onto a P30 filtermat and washed three times for 5 minutes in 75 mM phosphoric acid and once in methanol prior to drying and scintillation counting.
(§3) IC50 values for inhibitor peptides were determined using Millipore's IC50Profiler Express service. The IC50 value was estimated from a 10-point curve of one-half log dilutions. For peptides tested for specificity, the concentration of the peptides that inhibited approximately 95% of MK2 activity was chosen to profile against a battery of kinases related to MK2, cell viability, or human disease from MilliporeKinaseProfiler service. In both assays, compounds were supplied in dimethylsulfoxide (DMSO). Every kinase activity measurement was conducted in duplicate.
(§4) Therapeutic inhibitor peptides were assayed for activity against human kinases related to MK2, cell viability, or human disease. The assays were performed using concentrations of therapeutic inhibitor peptides that yielded 2% to 8% of normal MK2 activity. Error is reported as the standard deviation between 2 samples, and “c” is rat AMPK whereas all other kinases used are human kinases.

[2] = target: T2, Flt3 (Homo sapiens, UniProt P36888); experiment: Millipore radiometric kinase activity assay, Flt3 (h)
T2 construct: purchased Millipore (assay service)
T2 sequence (P36888 27-993): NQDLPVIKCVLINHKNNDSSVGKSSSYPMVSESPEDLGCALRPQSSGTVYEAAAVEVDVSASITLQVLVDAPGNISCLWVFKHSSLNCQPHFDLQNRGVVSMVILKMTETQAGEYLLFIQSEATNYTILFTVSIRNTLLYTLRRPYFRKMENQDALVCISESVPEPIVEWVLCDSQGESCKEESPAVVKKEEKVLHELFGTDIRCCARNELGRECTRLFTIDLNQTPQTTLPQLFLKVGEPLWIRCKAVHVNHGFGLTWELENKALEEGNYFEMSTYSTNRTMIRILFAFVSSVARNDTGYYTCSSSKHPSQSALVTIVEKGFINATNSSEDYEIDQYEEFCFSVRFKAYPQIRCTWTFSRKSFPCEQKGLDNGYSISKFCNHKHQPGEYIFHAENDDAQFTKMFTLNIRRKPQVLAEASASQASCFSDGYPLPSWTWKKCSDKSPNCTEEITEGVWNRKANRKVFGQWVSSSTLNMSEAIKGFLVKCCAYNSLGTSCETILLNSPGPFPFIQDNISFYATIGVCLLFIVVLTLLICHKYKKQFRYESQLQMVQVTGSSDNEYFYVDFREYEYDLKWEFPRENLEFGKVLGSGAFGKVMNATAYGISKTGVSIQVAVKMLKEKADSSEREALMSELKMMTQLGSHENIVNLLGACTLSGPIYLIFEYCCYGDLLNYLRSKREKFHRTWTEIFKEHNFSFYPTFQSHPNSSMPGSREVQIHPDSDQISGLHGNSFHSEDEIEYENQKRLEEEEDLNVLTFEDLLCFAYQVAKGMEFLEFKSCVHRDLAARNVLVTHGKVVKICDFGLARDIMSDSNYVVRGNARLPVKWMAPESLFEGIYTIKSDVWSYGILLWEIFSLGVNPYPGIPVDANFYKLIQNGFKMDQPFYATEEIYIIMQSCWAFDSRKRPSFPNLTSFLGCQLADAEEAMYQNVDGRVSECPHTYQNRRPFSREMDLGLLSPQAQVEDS
Experimental: as §1
as §2, with “Flt3” for “LIMK1”, “50 μM […] [SEQ ID NO: 48],” for “0.6 mg/mL cofilin,”
as §3, §4

[3] = target: T3, Aurora-A (Homo sapiens, UniProt O14965); experiment: Millipore radiometric kinase activity assay, Aurora-A (h)
T3 construct: purchased Millipore (assay service)
T3 sequence (O14965 1-403): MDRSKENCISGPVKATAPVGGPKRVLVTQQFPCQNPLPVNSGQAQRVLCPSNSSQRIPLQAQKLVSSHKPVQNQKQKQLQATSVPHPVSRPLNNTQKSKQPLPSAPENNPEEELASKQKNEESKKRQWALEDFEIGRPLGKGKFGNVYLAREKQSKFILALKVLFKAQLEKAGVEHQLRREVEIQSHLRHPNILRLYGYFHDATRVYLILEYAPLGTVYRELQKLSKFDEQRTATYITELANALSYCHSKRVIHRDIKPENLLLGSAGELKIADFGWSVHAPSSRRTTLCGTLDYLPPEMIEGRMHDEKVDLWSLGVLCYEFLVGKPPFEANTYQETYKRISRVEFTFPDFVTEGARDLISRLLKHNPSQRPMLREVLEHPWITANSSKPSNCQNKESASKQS
Experimental: as §1
as §2, with “Aurora-A” for “LIMK1”, “200 μM LRRASLG [SEQ ID NO: 50] (Kemptide),” for “0.6 mg/mL cofilin,”, “50” for “75”
as §3, §4

T1 sequence (P53667 whole entry): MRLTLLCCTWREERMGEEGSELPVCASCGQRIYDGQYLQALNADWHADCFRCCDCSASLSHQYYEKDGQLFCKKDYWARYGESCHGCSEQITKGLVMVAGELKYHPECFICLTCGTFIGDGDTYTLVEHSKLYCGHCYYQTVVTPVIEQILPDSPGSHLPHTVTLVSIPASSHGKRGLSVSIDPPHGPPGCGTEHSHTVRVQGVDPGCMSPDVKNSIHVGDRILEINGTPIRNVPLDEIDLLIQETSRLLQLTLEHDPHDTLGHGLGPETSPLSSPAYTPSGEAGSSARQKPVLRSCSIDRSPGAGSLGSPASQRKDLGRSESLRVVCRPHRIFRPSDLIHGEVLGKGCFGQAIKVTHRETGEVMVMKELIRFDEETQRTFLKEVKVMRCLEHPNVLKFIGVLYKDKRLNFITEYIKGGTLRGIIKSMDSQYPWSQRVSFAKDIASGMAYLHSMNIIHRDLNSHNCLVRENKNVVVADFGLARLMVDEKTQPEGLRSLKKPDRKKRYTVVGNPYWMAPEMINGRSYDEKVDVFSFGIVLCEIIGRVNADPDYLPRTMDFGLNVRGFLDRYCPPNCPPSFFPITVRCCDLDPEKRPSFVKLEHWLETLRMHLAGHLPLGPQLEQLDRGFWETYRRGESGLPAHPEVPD

Question: Which results are given for WLRRIKAWLRRIKALNRQLGVAA?
Answer: LIMK1 Kinase Activity (%) (+SD %) ([1]; peptide 30 μM): 89 (3) %; LIMK1 Kinase Activity (%) (+SD %) ([1]; peptide 100 μM): 92 (2) %; Flt3 Kinase Activity (%) (+SD %) ([2]; peptide 30 μM): 38 (1) %; Flt3 Kinase Activity (%) (+SD %) ([2]; peptide 100 μM): 14 (0) %; Aurora-A Kinase Activity (%) (+SD %) ([3]; peptide 30 μM): 46 (1) %; Aurora-A Kinase Activity (%) (+SD %) ([3]; peptide 100 μM): 65 (5) %

Question: What does the source list for KAFAKLAARLYRKALARQLGVAA?
Answer: LIMK1 Kinase Activity (%) (+SD %) ([1]; peptide 100 μM): 93 (3) %; Flt3 Kinase Activity (%) (+SD %) ([2]; peptide 100 μM): 20 (3) %; Aurora-A Kinase Activity (%) (+SD %) ([3]; peptide 100 μM): 60 (1) %
